Assays:
Experiment in all cases: cell-based or functional assay
[1] = biological target: Glycoprotein VI on human platelets of donors not sorted to one allele (random donors, 'ab' heterozygotes, or donors whose genotype is not stated) (human) (UniProt Q9HCN6)
[2] = biological target: Glycoprotein VI, GPVI^a allele protein (SKTQH), on platelets of 'aa' homozygous donors (human) (UniProt Q9HCN6)
[3] = biological target: Glycoprotein VI, GPVI^b allele protein (PEALN), on platelets of 'bb' homozygous donors (human) (UniProt Q9HCN6)

% of platelets binding annexin V at CRP 10 µg/ml [1]: 10 to 30% | platelet aggregation at a CRP concentration of 0.10 µg/ml (mean) [2]: 71% | platelet aggregation at a CRP concentration of 0.10 µg/ml (mean) [3]: 4.6%
Substance: Collagen related peptide (CRP), triple-helical peptide containing a glycine-proline-hydroxyproline repeat motif

— patent US7855050
